The values that follow come from PMC11250262, “Understanding the genetic complexity of puberty timing across the allele frequency spectrum” (Nature Genetics, 2024).

In this assay the target is MC3R-RlucII (human, UniProt P41968 1-323). The assay is described as follows: cell-based or functional assay.
MC3R-RlucII, sequence (P41968 whole entry): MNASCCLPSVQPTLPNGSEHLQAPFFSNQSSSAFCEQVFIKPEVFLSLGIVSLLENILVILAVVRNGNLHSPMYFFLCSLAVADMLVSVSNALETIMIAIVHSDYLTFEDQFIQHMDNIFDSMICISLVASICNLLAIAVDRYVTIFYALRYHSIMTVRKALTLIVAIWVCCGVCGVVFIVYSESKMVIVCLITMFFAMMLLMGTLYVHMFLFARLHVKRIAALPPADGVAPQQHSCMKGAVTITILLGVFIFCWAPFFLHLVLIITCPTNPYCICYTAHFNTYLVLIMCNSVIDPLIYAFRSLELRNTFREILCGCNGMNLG

B1: GPR83-Venus (receptor, human, UniProt Q9NYM4-1 17-423, looked up)
chain: TEPHEGRADEQSAEAALAVPNASHFFSWNNYTFSDWQNFVGRRRYGAESQNPTVKALLIVAYSFIIVFSLFGNVLVCHVIFKNQRMHSATSLFIVNLAVADIMITLLNTPFTLVRFVNSTWIFGKGMCHVSRFAQYCSLHVSALTLTAIAVDRHQVIMHPLKPRISITKGVIYIAVIWTMATFFSLPHAICQKLFTFKYSEDIVRSLCLPDFPEPADLFWKYLDLATFILLYILPLLIISVAYARVAKKLWLCNMIGDVTTEQYFALRRKKKKTIKMLMLVVVLFALCWFPLNCYVLLLSSKVIRTNNALYFAFHWFAMSSTCYNPFIYCWLNENFRIELKALLSMCQRPPKPQEDRPPSPVPSFRVAWTEKNDGQRAPLANNLLPTSQLQSGKTDLSSVEPIVTMS
For B1, the “NDP-αMSH-stimulated cAMP production (GloSensor, area under the curve) in HEK293 cells cotransfected with GPR83 and MC3R (1:1 ratio), against MC3R alone” value was determined as 43%.
